Data set [1] deals with MS2 coat protein. In words: apparent KD of MS2 coat protein; designed switch direction (-1 OFF switch, 1 ON switch): 1; higher = weaker reporter binding. The method, boiled down:
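Transcription of designed RNA switches on Illumina chips was done by stalled E. coli RNA polymerase. SNAP-549-labelled MS2 coat protein was then titrated in doubling steps from 0.7 or 1.5 nM to 3 µM, with steps of 0.8–1.5 h at the lowest and 10–20 min at the highest concentration. The per-design median over clusters of curve-fitted normalised fluorescence is reported as apparent KD.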

The test system of data set [2] is MS2 coat protein. As to the kind of experiment: apparent KD of MS2 coat protein; higher = weaker reporter binding. To be noted: Eterna round: R107. The method, boiled down: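 With or without constant ligand, designed RNA switches in 100 mM Tris-HCl pH 7.5, 80 mM KCl and 4 mM MgCl2 were titrated with SNAP-549-labelled MS2 coat protein. Concentrations went up in twofold steps from 0.7 or 1.5 nM to 3 µM. The switches had been transcribed on-chip from Illumina sequencing clusters, and apparent KD is the per-design median of normalised cluster binding-curve fits.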

The mark [3] stands for this setting: input ligand: microRNA oligo, concentration not stated.
Setting [4] is: Eterna round: R95, input ligand: FMN 200 uM.
Where [5] appears, read: Eterna round: R95, input ligand: microRNA oligo, concentration not stated.
Setting [6] is: Eterna round: R95, input ligand: none.
The mark [7] stands for this setting: input ligand: theophylline 20 uM.
[8] abbreviates: input ligand: theophylline 2 mM.
[9] abbreviates: input ligand: tryptophan 2.4 mM.

The results in this text go back to the supplement of paper PMC9170038.

As for “AAAAAACAUGAGGAUCACCCAUGUCAAAAGACAUGAGGAUAUGUACAGACUUCGGUCUGUACAGAAGGCAUGAAAA [SS1 - 1011] (Eterna round: R96, puzzle: Same State 1)”, the “apparent KD of MS2 coat protein” value in the data set on MS2 coat protein [1] (setting [3]) was found to be 359 nM.
On the same count and under the same terms, as for “AAAAAACAUGAGGAUCACCCAUGUCAAAAGACAUGAGGAUAUGUACAGACUUCGGUCUGUACAGAAGGCAUGAAAA [salish99_ss1_r3_093] (Eterna round: R96, puzzle: Same State 1)”, the figure is 359 nM.
As for “AAAAAACAUGAGGAUCACCCAUGUCAAAAGACAUGAGGAUAUGUACAGACUUCGGUCUGUACAGAAGGCAUGAAAA [salish99_ss1_r3_093] (puzzle: Same State 1)”, the “apparent KD of MS2 coat protein” value is 32.2 nM with MS2 coat protein [1] (setting [4]), 570 nM in the data set with MS2 coat protein [1] (setting [5]) and 528 nM in the data set on MS2 coat protein [1] (setting [6]).
“AAAAGAAACGCAGGAUAUGCACAUGAGGAUCACCCAUGUCCCACGGGCUCGACCGAGCCUGUGAAGCAGAAGGGUGUAAGAAAA [Erleusor] (Eterna round: R96, puzzle: Same State NG 2)”: the figures for the “apparent KD of MS2 coat protein” value in the data set with MS2 coat protein [1] (input ligand: FMN 200 uM), with MS2 coat protein [1] (setting [3]) and with MS2 coat protein [1] (input ligand: none) were 54.1 nM, 208 nM and 74.7 nM, respectively.
On to “AAAAGACAUGAGGAUCACCCAUGUAAAAACAUAGGAGGAUAUGUCAUGAAAAAAGACUUGACAGAAGGCCUUUGUC [SS1 - 49] (Eterna round: R96, puzzle: Same State 1)”, for which the “apparent KD of MS2 coat protein” value with MS2 coat protein [1] (setting [3]) amounted to 156 nM.
Take “AAAAGACAUGAGGAUCACCCAUGUAUGAAAAGUACAGGAUAUCACGAGCUAAGAAGCGAGUGAGAAGGGUGAAAAU [Sogedi] (puzzle: Same State 1)”: the “apparent KD of MS2 coat protein” value is 519 nM with MS2 coat protein [1] (setting [4]), 69.1 nM in the data set on MS2 coat protein [1] (setting [5]) and 109 nM with MS2 coat protein [1] (setting [6]).
On to “AAAAGACAUGAGGAUCACCCAUGUGAAAACAUACAAGGAUAUGUGUGGAAACCGUACUAUACAGAAGGUGUAUGUC [SS1 - 85] (Eterna round: R96, puzzle: Same State 1)”, for which the “apparent KD of MS2 coat protein” value in the data set on MS2 coat protein [1] (setting [3]) turned out to be 25.1 nM.
On to “AAAAUGGUAUGUUACAUGAGGAUCACCCAUGUACGGUCAUCUGAGGAUAUGGUGAUGUAGAAGAAUCAGAAGGCAGACAUUUAA [AK SSNG3-V2-26] (Eterna round: R96, puzzle: Same State NG 3)”, for which the “apparent KD of MS2 coat protein” value with MS2 coat protein [1] (input ligand: FMN 200 uM) came out at 27.9 nM; in the data set with MS2 coat protein [1] (setting [3]), 19.8 nM; in the data set on MS2 coat protein [1] (input ligand: none), 32.3 nM.
On the same counts, the results for “AAAAUGUGAUGUCACAUGAGGAUCACCCAUGUGGUGACAACUAAGGAUAUAACGAACCAAGGCGAUUAGAAGGUAGGAUCACAA [AK SSNG3-V2-17] (Eterna round: R96, puzzle: Same State NG 3)” are 102 nM, 120 nM and 207 nM.
Regarding “AAACAUGAGCGAGGAUAUACAUGAGGAUCACCCGUAGAAGGCGCAUGUAAAACAACAUGAGGAUCACCCAUGUCAUGUACAUGA [Same State NG1 S1] (Eterna round: R96, puzzle: Same State NG 1)”, the “apparent KD of MS2 coat protein” value in the data set with MS2 coat protein [1] (input ligand: FMN 200 uM) is 61.5 nM; with MS2 coat protein [1] (setting [3]), 55 nM; in the data set on MS2 coat protein [1] (input ligand: none) it was 66.9 nM.
As for “AAAGACAUGAGGAUCACCCAUGUACAGACAAACCAGUCUGCACAGGAUAUCCCGAGGAUAACUCGGGAGAAGGGUGGCCAAAAC [Onveenes] (Eterna round: R96, puzzle: Same State NG 3)”, the “apparent KD of MS2 coat protein” value in the data set with MS2 coat protein [1] (input ligand: FMN 200 uM) is 74.8 nM; in the data set on MS2 coat protein [1] (setting [3]), 18.9 nM; with MS2 coat protein [1] (input ligand: none) it was 33.5 nM.
For the sequence “AAAGCACAUGAGGAUCACCCAUGUGGAAAUAACACAGGAUAUCUGGCCUAAGCUUAGGCGAGAGAAGGGUGACCUA [Beintivequ] (puzzle: Same State 1)”, the “apparent KD of MS2 coat protein” value in the data set with MS2 coat protein [1] (setting [5]) amounted to 65.5 nM.
Regarding “AAAGGAUGAUUAUACAUGAGGAUCACCCAUGUAAGUAAUACUAAGGAUAUGUGACUUAAUUGUUUACAGAAGGUAGGUUCAUGA [AK SSNG3-V2-1.1] (Eterna round: R96, puzzle: Same State NG 3)”, the “apparent KD of MS2 coat protein” value came out at 58.8 nM in the data set on MS2 coat protein [1] (input ligand: FMN 200 uM), 230 nM in the data set with MS2 coat protein [1] (setting [3]) and 117 nM in the data set with MS2 coat protein [1] (input ligand: none).
For “AAAGUACAUGAGGAUCACCCAUGUAAAAGACUCACAGGAUAUGCUUCUUGUGUACAAGCUGCAGAAGGGUGAAAAG [Oraes] (puzzle: Same State 1)”, the “apparent KD of MS2 coat protein” value came to 30.8 nM in the data set with MS2 coat protein [1] (setting [4]), 55.9 nM with MS2 coat protein [1] (setting [5]) and 107 nM in the data set with MS2 coat protein [1] (setting [6]).
Take “AAAUCAAGUAAAACAUGAGGAUCACCCAUGUGAGAAGCUUCCAAGGAUAUGGUAUGCAUGGAAACCCAGAAGGUGGUCAAAGCA [Eternabot solution 29] (Eterna round: R96, puzzle: Same State NG 3)”: the “apparent KD of MS2 coat protein” value in the data set on MS2 coat protein [1] (input ligand: FMN 200 uM) amounted to 247 nM; with MS2 coat protein [1] (setting [3]), 181 nM; in the data set on MS2 coat protein [1] (input ligand: none), 272 nM.
On to “UGUAUGUGAUCUGAUACCAGUCCAACUGGUAAAACUUGAGGAUCACCCAAGUAAAAUUGGGACCCUUGGCAGCAGAUCGCAUACU”, for which the “apparent KD of MS2 coat protein” value in the data set on MS2 coat protein [2] (input ligand: arginine 13.2 mM) was 126 nM; in the data set on MS2 coat protein [2] (input ligand: none), 371 nM; with MS2 coat protein [2] (setting [7]), 360 nM; in the data set on MS2 coat protein [2] (setting [8]), 81.7 nM; in the data set with MS2 coat protein [2] (setting [9]) it was 371 nM.
With “UGUCAGCGAAAGUUGACAUGUCUUACCGGUCGAGGACCGGUACGGCCGCCACUCGAUCUCUCGCACAUGAGGAUCACCCAUGUCG [SS Tryp A #17]”, the “apparent KD of MS2 coat protein” value in the data set on MS2 coat protein [2] (input ligand: arginine 13.2 mM) was 12.8 nM; in the data set with MS2 coat protein [2] (setting [7]) it was 15.4 nM; in the data set with MS2 coat protein [2] (setting [8]), 12.8 nM.
For “UGUGCAUGAGUUGUAAAAGCUCAUGGGCAUCGAGGACCGGUACGGCCGCCACUCGGCUGUACAUGAGGAUCACCCAUGUCAGGGU [#1 Same State - Tryptophan A Attempt #22 (HarryS)]”, the “apparent KD of MS2 coat protein” value with MS2 coat protein [2] (input ligand: arginine 13.2 mM) turned out to be 133 nM; in the data set with MS2 coat protein [2] (setting [7]) it was 609 nM; in the data set on MS2 coat protein [2] (setting [8]), 1100 nM.
For the sequence “UUACAUGAGGAUCACCCAUGUCAUAAUGAUACCAGAUAGUUAAUGAUCCCUUGGCAGCAUAAUACCUAGACAUUUAAGUCAUAGG [Aa]”, the “apparent KD of MS2 coat protein” value stood at 59.5 nM in the data set on MS2 coat protein [2] (input ligand: arginine 13.2 mM), 80 nM in the data set with MS2 coat protein [2] (setting [7]) and 56.2 nM in the data set with MS2 coat protein [2] (setting [9]).
